Measurements from patent publication US20240270846A1 (published 2024).

B1: CE115HA000/GLS3000 H34G one-arm antibody (antibody, human IgG1, kappa, L234A L235A, N297A, name in Kabat numbering)
heavy: QVQLVESGGGVVQPGRSLRLSCAASGFTFSNAWMHWVRQAPGKGLEWVAQIKAKSNNYATYYAESVKGRFTISRDDSKNSLYLQMNSLKTEDTAVYYCRYVHYGAYYGVDAWGQGTTVTVSSASTKGPSVFPLAPSSKSTSGGTAALGCLVKDYFPEPVTVSWNSGALTSGVHTFPAVLQSSGLYSLSSVVTVPSSSLGTQTYICNVNHKPSNTKVDKKVEPKSCDKTHTCPPCPAPEAAGGPSVFLFPPKPKDTLMISRTPEVTCVVVDVSHEDPEVKFNWYVDGVEVHNAKTKPREEQYASTYRVVSVLTVLHQDWLNGKEYKCKVSNKALPAPIEKTISKAKGQPREPQVYTLPPSRCELTKNQVSLSCAVKGFYPSDIAVEWESNGQPENNYKTTPPVLDSDGSFFLVSKLTVDKSRWQQGNVFSCSVMHEALHNHYTQKSLSLSPDYKDDDDK
chain: EPKSSDKTHTCPPCPAPELLGGPSVFLFPPKPKDTLMISRTPEVTCVVVDVSHEDPEVKFNWYVDGVEVHNAKTKPREEQYNSTYRVVSVLTVLHQDWLNGKEYKCKVSNKALPAPIEKTISKAKGQPREPQVCTLPPSRDELTKNQVSLWCLVKGFYPSDIAVEWESNGQPENNYKTTPPVLDSDGSFFLYSKLTVDKSRWQQGNVFSCSVMHEALHNRYTQKSLSLSP
light: DIVMTQSPLSLPVTPGEPASISCRSSQSLVHSNRNTYLGWYQQKPGQAPRLLIYKVSNRFSGVPDRFSGSGSGTDFTLKISRVEAEDVGVYYCGQGTQVPYTFGQGTKLEIKRTVAAPSVFIFPPSDEQLKSGTASVVCLLNNFYPREAKVQWKVDNALQSGNSQESVTEQDSKDSTYSLSSTLTLSKADYEKHKVYACEVTHQGLSSPVTKSFNRGEC
notes: one-arm IgG1
B2: CE115HA000/GLS3000 H34L one-arm antibody (antibody, human IgG1, kappa, L234A L235A, N297A, name in Kabat numbering)
heavy: QVQLVESGGGVVQPGRSLRLSCAASGFTFSNAWMHWVRQAPGKGLEWVAQIKAKSNNYATYYAESVKGRFTISRDDSKNSLYLQMNSLKTEDTAVYYCRYVHYGAYYGVDAWGQGTTVTVSSASTKGPSVFPLAPSSKSTSGGTAALGCLVKDYFPEPVTVSWNSGALTSGVHTFPAVLQSSGLYSLSSVVTVPSSSLGTQTYICNVNHKPSNTKVDKKVEPKSCDKTHTCPPCPAPEAAGGPSVFLFPPKPKDTLMISRTPEVTCVVVDVSHEDPEVKFNWYVDGVEVHNAKTKPREEQYASTYRVVSVLTVLHQDWLNGKEYKCKVSNKALPAPIEKTISKAKGQPREPQVYTLPPSRCELTKNQVSLSCAVKGFYPSDIAVEWESNGQPENNYKTTPPVLDSDGSFFLVSKLTVDKSRWQQGNVFSCSVMHEALHNHYTQKSLSLSPDYKDDDDK
chain: EPKSSDKTHTCPPCPAPELLGGPSVFLFPPKPKDTLMISRTPEVTCVVVDVSHEDPEVKFNWYVDGVEVHNAKTKPREEQYNSTYRVVSVLTVLHQDWLNGKEYKCKVSNKALPAPIEKTISKAKGQPREPQVCTLPPSRDELTKNQVSLWCLVKGFYPSDIAVEWESNGQPENNYKTTPPVLDSDGSFFLYSKLTVDKSRWQQGNVFSCSVMHEALHNRYTQKSLSLSP
light: DIVMTQSPLSLPVTPGEPASISCRSSQSLVHSNRNTYLLWYQQKPGQAPRLLIYKVSNRFSGVPDRFSGSGSGTDFTLKISRVEAEDVGVYYCGQGTQVPYTFGQGTKLEIKRTVAAPSVFIFPPSDEQLKSGTASVVCLLNNFYPREAKVQWKVDNALQSGNSQESVTEQDSKDSTYSLSSTLTLSKADYEKHKVYACEVTHQGLSSPVTKSFNRGEC
notes: one-arm IgG1
B3: CE115HA000/GLS3000 H34M one-arm antibody (antibody, human IgG1, kappa, L234A L235A, N297A, name in Kabat numbering)
heavy: QVQLVESGGGVVQPGRSLRLSCAASGFTFSNAWMHWVRQAPGKGLEWVAQIKAKSNNYATYYAESVKGRFTISRDDSKNSLYLQMNSLKTEDTAVYYCRYVHYGAYYGVDAWGQGTTVTVSSASTKGPSVFPLAPSSKSTSGGTAALGCLVKDYFPEPVTVSWNSGALTSGVHTFPAVLQSSGLYSLSSVVTVPSSSLGTQTYICNVNHKPSNTKVDKKVEPKSCDKTHTCPPCPAPEAAGGPSVFLFPPKPKDTLMISRTPEVTCVVVDVSHEDPEVKFNWYVDGVEVHNAKTKPREEQYASTYRVVSVLTVLHQDWLNGKEYKCKVSNKALPAPIEKTISKAKGQPREPQVYTLPPSRCELTKNQVSLSCAVKGFYPSDIAVEWESNGQPENNYKTTPPVLDSDGSFFLVSKLTVDKSRWQQGNVFSCSVMHEALHNHYTQKSLSLSPDYKDDDDK
chain: EPKSSDKTHTCPPCPAPELLGGPSVFLFPPKPKDTLMISRTPEVTCVVVDVSHEDPEVKFNWYVDGVEVHNAKTKPREEQYNSTYRVVSVLTVLHQDWLNGKEYKCKVSNKALPAPIEKTISKAKGQPREPQVCTLPPSRDELTKNQVSLWCLVKGFYPSDIAVEWESNGQPENNYKTTPPVLDSDGSFFLYSKLTVDKSRWQQGNVFSCSVMHEALHNRYTQKSLSLSP
light: DIVMTQSPLSLPVTPGEPASISCRSSQSLVHSNRNTYLMWYQQKPGQAPRLLIYKVSNRFSGVPDRFSGSGSGTDFTLKISRVEAEDVGVYYCGQGTQVPYTFGQGTKLEIKRTVAAPSVFIFPPSDEQLKSGTASVVCLLNNFYPREAKVQWKVDNALQSGNSQESVTEQDSKDSTYSLSSTLTLSKADYEKHKVYACEVTHQGLSSPVTKSFNRGEC
notes: one-arm IgG1
B4: CE115HA000/GLS3000 H34I one-arm antibody (antibody, human IgG1, kappa, L234A L235A, N297A, name in Kabat numbering)
heavy: QVQLVESGGGVVQPGRSLRLSCAASGFTFSNAWMHWVRQAPGKGLEWVAQIKAKSNNYATYYAESVKGRFTISRDDSKNSLYLQMNSLKTEDTAVYYCRYVHYGAYYGVDAWGQGTTVTVSSASTKGPSVFPLAPSSKSTSGGTAALGCLVKDYFPEPVTVSWNSGALTSGVHTFPAVLQSSGLYSLSSVVTVPSSSLGTQTYICNVNHKPSNTKVDKKVEPKSCDKTHTCPPCPAPEAAGGPSVFLFPPKPKDTLMISRTPEVTCVVVDVSHEDPEVKFNWYVDGVEVHNAKTKPREEQYASTYRVVSVLTVLHQDWLNGKEYKCKVSNKALPAPIEKTISKAKGQPREPQVYTLPPSRCELTKNQVSLSCAVKGFYPSDIAVEWESNGQPENNYKTTPPVLDSDGSFFLVSKLTVDKSRWQQGNVFSCSVMHEALHNHYTQKSLSLSPDYKDDDDK
chain: EPKSSDKTHTCPPCPAPELLGGPSVFLFPPKPKDTLMISRTPEVTCVVVDVSHEDPEVKFNWYVDGVEVHNAKTKPREEQYNSTYRVVSVLTVLHQDWLNGKEYKCKVSNKALPAPIEKTISKAKGQPREPQVCTLPPSRDELTKNQVSLWCLVKGFYPSDIAVEWESNGQPENNYKTTPPVLDSDGSFFLYSKLTVDKSRWQQGNVFSCSVMHEALHNRYTQKSLSLSP
light: DIVMTQSPLSLPVTPGEPASISCRSSQSLVHSNRNTYLIWYQQKPGQAPRLLIYKVSNRFSGVPDRFSGSGSGTDFTLKISRVEAEDVGVYYCGQGTQVPYTFGQGTKLEIKRTVAAPSVFIFPPSDEQLKSGTASVVCLLNNFYPREAKVQWKVDNALQSGNSQESVTEQDSKDSTYSLSSTLTLSKADYEKHKVYACEVTHQGLSSPVTKSFNRGEC
notes: one-arm IgG1
B5: CE115HA000/GLS3000 H34K one-arm antibody (antibody, human IgG1, kappa, L234A L235A, N297A, name in Kabat numbering)
heavy: QVQLVESGGGVVQPGRSLRLSCAASGFTFSNAWMHWVRQAPGKGLEWVAQIKAKSNNYATYYAESVKGRFTISRDDSKNSLYLQMNSLKTEDTAVYYCRYVHYGAYYGVDAWGQGTTVTVSSASTKGPSVFPLAPSSKSTSGGTAALGCLVKDYFPEPVTVSWNSGALTSGVHTFPAVLQSSGLYSLSSVVTVPSSSLGTQTYICNVNHKPSNTKVDKKVEPKSCDKTHTCPPCPAPEAAGGPSVFLFPPKPKDTLMISRTPEVTCVVVDVSHEDPEVKFNWYVDGVEVHNAKTKPREEQYASTYRVVSVLTVLHQDWLNGKEYKCKVSNKALPAPIEKTISKAKGQPREPQVYTLPPSRCELTKNQVSLSCAVKGFYPSDIAVEWESNGQPENNYKTTPPVLDSDGSFFLVSKLTVDKSRWQQGNVFSCSVMHEALHNHYTQKSLSLSPDYKDDDDK
chain: EPKSSDKTHTCPPCPAPELLGGPSVFLFPPKPKDTLMISRTPEVTCVVVDVSHEDPEVKFNWYVDGVEVHNAKTKPREEQYNSTYRVVSVLTVLHQDWLNGKEYKCKVSNKALPAPIEKTISKAKGQPREPQVCTLPPSRDELTKNQVSLWCLVKGFYPSDIAVEWESNGQPENNYKTTPPVLDSDGSFFLYSKLTVDKSRWQQGNVFSCSVMHEALHNRYTQKSLSLSP
light: DIVMTQSPLSLPVTPGEPASISCRSSQSLVHSNRNTYLKWYQQKPGQAPRLLIYKVSNRFSGVPDRFSGSGSGTDFTLKISRVEAEDVGVYYCGQGTQVPYTFGQGTKLEIKRTVAAPSVFIFPPSDEQLKSGTASVVCLLNNFYPREAKVQWKVDNALQSGNSQESVTEQDSKDSTYSLSSTLTLSKADYEKHKVYACEVTHQGLSSPVTKSFNRGEC
notes: one-arm IgG1
B6: CE115HA000/GLS3000 H34N one-arm antibody (antibody, human IgG1, kappa, L234A L235A, N297A, name in Kabat numbering)
heavy: QVQLVESGGGVVQPGRSLRLSCAASGFTFSNAWMHWVRQAPGKGLEWVAQIKAKSNNYATYYAESVKGRFTISRDDSKNSLYLQMNSLKTEDTAVYYCRYVHYGAYYGVDAWGQGTTVTVSSASTKGPSVFPLAPSSKSTSGGTAALGCLVKDYFPEPVTVSWNSGALTSGVHTFPAVLQSSGLYSLSSVVTVPSSSLGTQTYICNVNHKPSNTKVDKKVEPKSCDKTHTCPPCPAPEAAGGPSVFLFPPKPKDTLMISRTPEVTCVVVDVSHEDPEVKFNWYVDGVEVHNAKTKPREEQYASTYRVVSVLTVLHQDWLNGKEYKCKVSNKALPAPIEKTISKAKGQPREPQVYTLPPSRCELTKNQVSLSCAVKGFYPSDIAVEWESNGQPENNYKTTPPVLDSDGSFFLVSKLTVDKSRWQQGNVFSCSVMHEALHNHYTQKSLSLSPDYKDDDDK
chain: EPKSSDKTHTCPPCPAPELLGGPSVFLFPPKPKDTLMISRTPEVTCVVVDVSHEDPEVKFNWYVDGVEVHNAKTKPREEQYNSTYRVVSVLTVLHQDWLNGKEYKCKVSNKALPAPIEKTISKAKGQPREPQVCTLPPSRDELTKNQVSLWCLVKGFYPSDIAVEWESNGQPENNYKTTPPVLDSDGSFFLYSKLTVDKSRWQQGNVFSCSVMHEALHNRYTQKSLSLSP
light: DIVMTQSPLSLPVTPGEPASISCRSSQSLVHSNRNTYLNWYQQKPGQAPRLLIYKVSNRFSGVPDRFSGSGSGTDFTLKISRVEAEDVGVYYCGQGTQVPYTFGQGTKLEIKRTVAAPSVFIFPPSDEQLKSGTASVVCLLNNFYPREAKVQWKVDNALQSGNSQESVTEQDSKDSTYSLSSTLTLSKADYEKHKVYACEVTHQGLSSPVTKSFNRGEC
notes: one-arm IgG1

target: T1, CD3 epsilon homodimer protein (UniProt P07766 23-126); assay: SPR (Biacore T200), CD3e homodimer on CM4 chip, antibody as analyte; KD ratio vs unaltered GLS3000;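 further: CD3 epsilon homodimer amine-coupled to the sensor surface, antibodies injected as analyte at 25 °C with HBS-EP+ running buffer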
T1 construct: also called CD3 (CD3 epsilon)
T1 sequence (P07766 23-126): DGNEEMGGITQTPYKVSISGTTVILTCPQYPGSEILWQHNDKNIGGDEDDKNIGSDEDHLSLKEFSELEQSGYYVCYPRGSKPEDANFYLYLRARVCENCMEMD

Going from B1 to B2, the “KD ratio to GLS3000” value falls from 1.08 ratio to 1.03 ratio.

Going from B3 to B4, the “KD ratio to GLS3000” value falls from 3.16 ratio to 0.89 ratio.

First: B5
Second: B6
The “KD ratio to GLS3000” value of the first is higher: 4.1 ratio for the first, 2.84 ratio for the second.
